Assay results as given in article PMC11098746 (2024).
No end group written: not given here.

B1: ADP279 (protein)
chain: RMAHKFITGKLVEDERSDREETESSEGEEAAAGGGAKSRPLANGHPILNNNHRKND
modifications: also: human Fc-tagged dimer
B2: ADP136 (protein)
chain: MVRIAGALRTLLPLLAALLQASVEASGEIALCKTGFPEDVYSAVLSKDVHEGQPLLNVKFSNCNGKRKVQYESSEPADFKVDEDGMVYAVRSFPLSSEHAKFLIYAQDKETQEKWQVAVKLSLKPTLTEESVKESAEVEEIVFPRQFSKHSGHLQRQKRDWVIPPINLPENSRGPFPQELVRIRSDRDKNLSLRYSVTGPGADQPPTGIFIINPISGQLSVTKPLDREQIARFHLRAHAVDINGNQVENPIDIVINVIDMNDNRPEFLHQVWNGTVPEGSKPGTYVMTVTAIDADDPNALNGMLRYRIVSQAPSTPSPNMFTINNETGDIITVAAGLDREKVQQYTLIIQATDMEGNPTYGLSNTATAVITVTDVNDNPPEFTAMTFYGEVPENRVDIIVANLTVTDKDQPHTPAWNAVYRISGGDPTGRFAIQTDPNSNDGLVTVVKPIDFETNRMFVLTVAAENQVPLAKGIQHPPQSTATVSVTVIDVNENPYFAPNPKIIRQEEGLHAGTMLTTFTAQDPDRYMQQNIRYTKLSDPANWLKIDPVNGQITTIAVLDRESPNVKNNIYNATFLASDNGIPPMSGTGTLQIYLLDINDNAPQVLPQEAETCETPDPNSINITALDYDIDPNAGPFAFDLPLSPVTIKRNWTITRLNGDFAQLNLKIKFLEAGIYEVPIIITDSGNPPKSNISILRVKVCQCDSNGDCTDVDRIVGAGLGT
modifications: bait human Fc-tagged dimer
B3: ADP352 (protein)
chain: MGHLSAPLHRVRVPWQGLLLTASLLTFWNPPTTAQLTTESMPFNVAEGKEVLLLVHNLPQQLFGYSWYKGERVDGNRQIVGYAIGTQQATPGPANSGRETIYPNASLLIQNVTQNDTGFYTLQVIKSDLVNEEATGQFHVYPELPKPSISSNNSNPVEDKDAVAFTCEPETQDTTYLWWINNQSLPVSPRLQLSNGNRTLTLLSVTRNDTGPYECEIQNPVSANRSDPVTLNVTYGPDTPTISPSDTYYRPGANLSLSCYAASNPPAQYSWLINGTFQQSTQELFIPNITVNNSGSYTCHANNSVTGCNRTTVKTIIVTELSPVVAKPQIKASKTTVTGDKDSVNLTCSTNDTGISIRWFFKNQSLPSSERMKLSQGNTTLSINPVKREDAGTYWCEVFNPISKNQSDPIMLNVNYNALPQENGLSPG
modifications: bait human Fc-tagged dimer
B4: ADP296 (protein)
chain: MARERGALSRASRALRLAPFVYLLLIQTDPLEGVNITSPVRLIHGTVGKSALLSVQYSSTSSDRPVVKWQLKRDKPVTVVQSIGTEVIGTLRPDYRDRIRLFENGSLLLSDLQLADEGTYEVEISITDDTFTGEKTINLTVDVPISRPQVLVASTTVLELSEAFTLNCSHENGTKPSYTWLKDGKPLLNDSRMLLSPDQKVLTITRVLMEDDDLYSCMVENPISQGRSLPVKITVYRRSS
modifications: bait human Fc-tagged dimer
B5: ADP138 (protein)
chain: MAGKSSTRAVLLLLGIQLTALWPIAAVEIYTSRVLEAVNGTDARLKCTFSSFAPVGDALTVTWNFRPLDGGPEQFVFYYHIDPFQPMSGRFKDRVSWDGNPERYDASILLWKLQFDDNGTYTCQVKNPPDVDGVIGEIRLSVVHTVRFS
modifications: bait human Fc-tagged dimer
B6: ADP120 (protein)
chain: MAGVGAGPLRAMGRQALLLLALCATGAQGLYFHIGETEKRCFIEEIPDETMVIGNYRTQMWDKQKEVFLPSTPGLGMHVEVKDPDGKVVLSRQYGSEGRFTFTSHTPGDHQICLHSNSTRMALFAGGKLRVHLDIQVGEHANNYPEIAAKDKLTELQLRARQLLDQVEQIQKEQDYQRYREERFRLTSESTNQR
modifications: bait human Fc-tagged dimer
B7: ADP354 (protein)
chain: MGPWSRSLSALLLLLQVSSWLCQEPEPCHPGFDAESYTFTVPRRHLERGRVLGRVNFEDCTGRQRTAYFSLDTRFKVGTDGVITVKRPLRFHNPQIHFLVYAWDSTYRKFSTKVTLNTVGHHHRPPPHQASVSGIQAELLTFPNSSPGLRRQKRDWVIPPISCPENEKGPFPKNLVQIKSNKDKEGKVFYSITGQGADTPPVGVFIIERETGWLKVTEPLDRERIATYTLFSHAVSSNGNAVEDPMEILITVTDQNDNKPEFTQEVFKGSVMEGALPGTSVMEVTATDADDDVNTYNAAIAYTILSQDPELPDKNMFTINRNTGVISVVTTGLDRESFPTYTLVVQAADLQGEGLSTTATAVITVTDTNDNPPIFNPTTYKGQVPENEANVVITTLKVTDADAPNTPAWEAVYTILNDDGGQFVVTTNPVNNDGILKTAKGLDFEAKQQYILHVAVTNVVPFEVSLTTSTATVTVDVLDVNEAPIFVPPEKRVEVSEDFGVGQEITSYTAQEPDTFMEQKITYRIWRDTANWLEINPDTGAISTRAELDREDFEHVKNSTYTALIIATDNGSPVATGTGTLLLILSDVNDNAPIPEPRTIFFCERNPKPQVINIIDADLPPNTSPFTAELTHGASANWTIQYNDPTQESIILKPKMALEVGDYKINLKLMDNQNKDQVTTLEVSVCDCEGAAGVCRKAQPVEAGLQIP
modifications: bait human Fc-tagged dimer
B8: ADP374 (protein)
chain: MKETLYDEVLAKQKREQKLIPTKTDKKKAEKKKNKKKEIQNGNLHESDSESVPRDFKLSDALAVEDDQVAPVPLNVVETSSSVRERKKKEKKQKPVLEEQVIKESDASKIPGKKVEPVPVTKQPTPPSEAAASKKKPGQKKSKNGSDDQDKKVETLMVPSKRQEALPLHQETKQESGSGKKKASSKKQKTENVFVDEPLIHATTYIPLMDNADSSPVVDKREVIDLLKPDQVEGIQKSGTKKLKTETDKENAEVKFKDFLLSLKTMMFSEDEALCVVDLLKEKSGVIQDALKKSSKGELTTLIHQLQEKDKLLAAVKEDAAATKDRCKQLTQEMMTEKERSNVVITRMKDRIGTLEKEHNVFQNKIHVSYQETQQMQMKFQQVREQMEAEIAHLKQENGILRDAVSNTTNQLESKQSAELNKLRQDYARLVNELTEKTGKLQQEEVQKKNAEQAATQLKVQLQEAERRWEEVQSYIRKRTAEHEAAQQDLQSKFVAKENEVQSLHSKLTDTLVSKQQLEQRLMQLMESEQKRVNKEESLQMQVQDILEQNEALKAQIQQFHSQIAAQTSASVLAEELHKVIAEKDKQIKQTEDSLASERDRLTSKEEELKDIQNMNFLLKAEVQKLQALANEQAAAAHELEKMQQSVYVKDDKIRLLEEQLQHEISNKMEEFKILNDQNKALKSEVQKLQTLVSEQPNKDVVEQMEKCIQEKDEKLKTVEELLETGLIQVATKEEELNAIRTENSSLTKEVQDLKAKQNDQVSFASLVEELKKVIHEKDGKIKSVEELLEAELLKVANKEKTVQDLKQEIKALKEEIGNVQLEKAQQLSITSKVQELQNLLKGKEEQMNTMKAVLEEKEKDLANTGKWLQDLQEENESLKAHVQEVAQHNLKEASSASQFEELEIVLKEKENELKRLEAMLKERESDLSSKTQLLQDVQDENKLFKSQIEQLKQQNYQQASSFPPHEELLKVISEREKEISGLWNELDSLKDAVEHQRKKNNDLREKNWEAMEALASTEKMLQDKVNKTSKERQQQVEAVELEAKEVLKKLFPKVSVPSNLSYGEWLHGFEKKAKECMAGTSGSEEVKVLEHKLKEADEMHTLLQLECEKYKSVLAETEGILQKLQRSVEQEENKWKVKVDESHKTIKQMQSSFTSSEQELERLRSENKDIENLRREREHLEMELEKAEMERSTYVTEVRELKDLLTELQKKLDDSYSEAVRQNEELNLLKAQLNETLTKLRTEQNERQKVAGDLHKAQQSLELIQSKIVKAAGDTTVIENSDVSPETESSEKETMSVSLNQTVTQLQQLLQAVNQQLTKEKEHYQVLE
modifications: bait human Fc-tagged dimer
B9: ADP341 (protein)
chain: MEAAVAAPRPRLLLLVLAAAAAAAAALLPGATALQCFCHLCTKDNFTCVTDGLCFVSVTETTDKVIHNSMCIAEIDLIPRDRPFVCAPSSKTGSVTTTYCCNQDHCNKIELPTTVKSSPGLGP
modifications: bait human Fc-tagged dimer

Biological target: Circumsporozoite protein (CSP) (Plasmodium falciparum (isolate 3D7), UniProt Q7K740)
Assay: AVEXIS screen signal:noise (double-corrected)

Sequence of Circumsporozoite protein (CSP) (Q7K740 19-374): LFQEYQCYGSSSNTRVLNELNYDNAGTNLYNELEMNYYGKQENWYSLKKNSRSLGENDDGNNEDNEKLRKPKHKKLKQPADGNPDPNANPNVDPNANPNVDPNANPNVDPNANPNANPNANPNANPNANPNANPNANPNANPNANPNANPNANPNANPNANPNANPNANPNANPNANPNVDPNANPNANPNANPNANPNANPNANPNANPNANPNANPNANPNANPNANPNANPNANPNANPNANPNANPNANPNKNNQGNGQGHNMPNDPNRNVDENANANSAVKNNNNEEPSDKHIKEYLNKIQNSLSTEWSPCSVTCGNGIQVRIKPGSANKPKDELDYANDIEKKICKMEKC

In order of rising binding score:
1. B8  0.547
2. B7  0.796
3. B5  0.831
4. B6  0.957
5. B4  0.997
6. B1  1.03
7. B3  1.31
8. B9  1.43
9. B2  1.73
